Results from patent publication US20020127539A1, “Assays for identifying receptors having alterations in signaling” (priority 2000, published 2002).

Tests used:
[1] = molecular target: wild-type rat mu opioid receptor (rat); assay: cell-based or functional assay
[2] = molecular target: Asn150Ala mutant rat mu opioid receptor (rat); assay: cell-based or functional assay

Substance: [D-Ala2-MePhe4, Gly-ol5]enkephalin (peptide)
- Average Ligand Stimulated Activity (Light Emission), SRE-Luc + Gq5i luciferase reporter in HEK293 cells (light emission) [1]: 87500
- Average Ligand Stimulated Activity (Light Emission), SRE-Luc + Gq5i luciferase reporter in HEK293 cells (light emission) [2]: 87000
